Reference: US20220185900A1
Residue numbers refer to the chain shown, from its start.

B1: H2M7086N (antibody, mouse IgG2, V domains shown)
VH: QVQLVESGGGVVQPGRSLRLSCVVSGFTFSNYGMHWVRQGPGRGLEWLALIWYDGSDKYYAESVRGRFTISRDNSKNTVYLQMNSLRAEDTAMYYCTRDRIFDYWGQGTLVTVSS
VL: AIQMTQSPSSLSASVGDRVTITCRASQDIRNDLGWYQHNPGKAPNLLIYAASTLQIGVPSRFRGSGSGTDFTLTISSLQPEDFATYYCLQDFDYPLSFGGGTKVEIR
B2: H4H8045P (antibody, human IgG4, V domains shown)
VH: EVQLVESGGALVQPGGSLRLSCAASGFTFSNYAMTWVRQAPGMGLEWVSGISSSGASTFYADSVKGRFTISRDNSKNTLYLQMNSLRAEDTAVYYCAKEDYWGWFDYWGQGTLVTVSS
VL: DIQLTQSPSFLSASVGDRVTITCWASQDVSSYLAWYQQEPGKAPKVLIYDASTLQSGVPSRFSGSGSGTEFTLTISSLQPEDFAPYYCQQLNSYPYTFGQGTKLEIK
B3: H4H8046P (antibody, human IgG4, V domains shown)
VH: QVQLVQSRDEVKKPGASVKVSCKASGYTFTTYGISWVRQAPGQGLEWMGWINTYNGDTNYAQKVQDRVIMTTDTSTSTAYMELRSLRSDDTAVYFCAGARPLGGRRAFDIWGQGTMVTVSS
VL: DIQMTQSPSSLSASVGDRVTITCRASQGISHYLAWYQQKPGKVPKLLIYAASTLQSGVPSRFSGSGSGTDFTLTISSLQPEDVATYYCQKYNSVPWTFGQGTKVEIK
B4: H4H8056P (antibody, human IgG4, V domains shown)
VH: QVQLVESGGGVVQPGRSLRLSCAASGFTFRNYGMHWVRQAPGKGLEWVAVKRYDGSDEYFVDSVKGRFTISRDNSKNTLFLQMNSLRVDDTAVYYCARETPITGTTLDYWGQGTLVTVSS
VL: DIQMTQSPSSLSASVGDRVTITCRTSQSITNYLNWYQQKPGKAPKLLIYAASRSQSGVPSRFSGSGSGTDFTLTISSLQPEDFATYYCQQSYSTPLTFGGGTKVEIK
B5: H4H8058P (antibody, human IgG4, V domains shown)
VH: QVQLVESGGGVGQPGRSLRLSCVASGFTFRNYGMHWVRQAPGKGLDWVAIIGYDGSKEYNVDSVKGRFTISRDNSKNTLYLQMNSLGAEDTAIYYCARESPITGTTFDYWGQGTLVTVSS
VL: B4 VL with S9P, T25A, T30G, L46I, S54L
B6: H4H8060P (antibody, human IgG4, V domains shown)
VH: QVTLKESGPVLVKPTETLTLTCTVSGFSLSSARMGVSWIRQPPGKALEWLAHIFSTDEKSYSTSLKSRLSISKDTSLSQVVLIMTNMDPVDTATYYCARRTTMAPYYYYYGMDVWGHGTTVTVSS
VL: AIQMTQSPASLSASVGDRVTITCRASQGIRNDLGWYQQKPGKAPKLLISAASSLQSGVPSRFSGSGSGTDFTLTISSLQPEDFATYYCLQDYKYPWTFGQGTKVEIK
B7: H4H8062P (antibody, human IgG4, V domains shown)
VH: EVQLVESGGGLVQPGGSLRLSCSVSGFIFKNYAMRWVRQAPGKGLEWVSGISGSGGITYYADSVRGRVTISRDNSKNTLDLQMTNLRAEDTAVYYCAKAEYSSSGAYFDYWGQGTLVTVSS
VL: DIQMTQSPSSLSASVGDRVTITCRASQSIHNYLNWYLQRPGKAPKLLVYAASSLQSGVPSRFSGRGSGTDFTLTISSLQPEDFATYYCQQSYSAPYSFGQGTKLEIK
B8: H4H8066P (antibody, human IgG4, V domains shown)
VH: EVQLVESGGGLVQPGGSLRLSCEASGFTFSRYAMTWVRQAPGKGLEWVSGISGSGGSTFYVDSLQGRFTLSRDNSKHTLFLQMNSLRAEDTAIYYCAKENTYGHFDYWGQGTLVTVSS
VL: DIQLTQSPSFLSASVGDRVTITCWASQDISTYLAWYQQKPGKAPQVLIYAASSLQYGVPSRFSGSGSGTEFTLTITSLQPEDFATYYCQQLIGYPYIFGQGTKLEIK
B9: H4H8067P (antibody, human IgG4, V domains shown)
VH: QVQLVESGGGVVQPGRSLRLSCVASGFTFSNYGMHWVRQAPGKGLEWVALIWYDGSNKYFADSVKGRFTISRDNSKRMMFLEMNSLRAEDTAIYYCTRDRLFDFWGQGTLVTVSS
VL: AIQMTQSPSSLSASVGDRVSITCRASQDIRHDLGWFHQKPGKAPKLLIYAASTLQSGVPSRFGGSGSGTDFTLTITSLQPEDFGTYYCLQDYNYPATFGQGTRLEIK
B10: H4H8071P (antibody, human IgG4, V domains shown)
VH: EVQLVESGGGLVQPGGSLRLSCAASGFTFTTYFMSWVRQAPGKGLEWVSGISGSGTSTFYVDSMKGRFTISRDNSKNTLYLQMNSLRVEDTAVYFCAKENTYGHFDFWGQGTLVTVSS
VL: B2 VL with V29I, Y32H, E39K, F62I, P85A, N92D, S93G
B11: H4H8076P (antibody, human IgG4, V domains shown)
VH: QVQLQQSGPGLVKPSQTLSLTCAISGDSVSSNSVAWNWIRQSPSRGLEWLGRTYYRSNWYNTYAVSVKSRITIDPDTSKNQFSLQLNSVTPEDTALYYCARGHRYSGSYFDYWGQGTLVTVSS
VL: DIQMTQSPSSLSASVGDRVTITCRASQNINSYFNWYQQKPGKAPKLLIYAASSLQSGVPSRFSGGGSGTDFTLTISSLQPEDFATYYCQQTYTIPWTFGQGTKVEIK
B12: H4H8079P (antibody, human IgG4, V domains shown)
VH: EVQLVESGGGLVKPGGSLRLSCAASGFTFSNAWMSWVRQAPGKGLEWVGRIKSKTDGGTSEYAAPVKGRFTISRDDSKNTLFLQMNSLKSEDAAVYYCTTGRSWSDYFDFWGQGTLVTVSS
VL: not shown
B13: H4H8080P (antibody, human IgG4, V domains shown)
VH: EVQLVESGGGLVQSGGSLRLSCVASGFTFSTYAMTWVRQAPGRGLEWVSAISGSGASTYYADSLKGRFTVSRDNSKNTLYLQMNSLRAEDTAVYYCSKDHRNYDSDYDMDVWGQGTTVTVSS
VL: DIQMTQSPSSLSASVGDRVTITCRASQGIRNYLGWYQQKPGKAPKRLIYTASSLQSGVPSRFRGSGSGTEFTLTISSLQPEDFATYYCLQHNSYPYTFGQGTKLEIK

The binders below were run against human RET on cells (MCF7/SRE-Luc; HEK293/hGFRα3/hRET/SRE-Luc; HEK293/hGFRα1/hRET/SRE-Luc) (human), P07949 (assay: cell-based or functional assay).

Row | Binder | 293/hGFRα3/hRET SRE-luc % Blocking | 293/hGFRα3/hRET/SRE-Luc IC50 | MCF7/SRE-Luc % Activation | MCF7/SRE-Luc Avg % Blocking | MCF7/SRE-luc Avg. IC50 | Internalization (% H4H8087P), HEK293/hGFRa1/hRET/SRE-Luc cells, 37 C
1 | B1 | 98% | 4 nM | 0% | 100% | 2.6 nM | –
2 | B2 | 96% | 0.42 nM | 0% | 69% | 0.14 nM | –
3 | B3 | 91% | 11.8 nM | 5% | 78% | 44 nM | –
4 | B4 | – | – | 0% | 73% | 2 nM | –
5 | B5 | – | – | 0% | 85% | 5.4 nM | 42%
6 | B6 | – | – | 0% | 87% | > 100 nM | –
7 | B7 | – | – | 0% | 100% | 5.2 nM | 44.9%
8 | B8 | 93% | 1.5 nM | 0% | 60% | 0.39 nM | –
9 | B9 | 99% | 4.8 nM | 0% | 91% | 3.8 nM | 58.2%
10 | B10 | – | – | 0% | 84% | 0.45 nM | –
11 | B11 | – | – | 3% | 74% | 55.7 nM | –
12 | B12 | 96% | 0.8 nM | 0% | 90% | 0.15 nM | 62.8%
13 | B13 | 57% | 341 nM | 0% | 41% | > 100 nM | –
